Experiment [1] addresses T1, human serum albumin (human, UniProt P02768 25-609).
T1 construct: also called HSA
The experiment is described as follows: SPR, HSA immobilised on the chip, pH 7.3, 1:1 Langmuir fit. As for the experimental part:
(§1) Recombinant protein A, HSA, MSA or target (either ED-B or Her2) was immobilized on a High Capacity Amine sensor chip (Bruker) after NHS/EDC activation with a Sierra SPR-32 system (Bruker). The chip was equilibrated with SPR running buffer (PBS 0.05%, Tween pH 7.3). Injection of ethanolamine after target immobilization was used to block free NHS groups. To determine the binding of fusion proteins to FAP, the Fc-tagged target was injected with 60 or 30 nM to Protein A coupled spots followed by the injection of fusion proteins.
(§2) Binding proteins were applied to the chip in serial dilutions with a flow rate of 30 μl/min. Upon binding, analyte accumulated on the surface increasing the refractive index. This change in the refractive index was measured in real time and plotted as response or resonance units versus time. The association was performed for 120 seconds and the dissociation for 180 seconds. After each run, the chip surface was regenerated with 30 μl regeneration buffer (10 mM glycine pH 2.0 or pH 1.5) and equilibrated with running buffer. Binding studies were carried out using the Sierra SPR-32 system (Bruker); data evaluation was operated via the Sierra Analyser software, provided by the manufacturer, by the use of the Langmuir 1:1 model (RI=0).

The target of another experiment is T2, hFAP-Fc (human, UniProt Q12884 26-760, limits assumed).
T2 construct: also called Fc-tagged target (FAP)
T2 sequence (looked up): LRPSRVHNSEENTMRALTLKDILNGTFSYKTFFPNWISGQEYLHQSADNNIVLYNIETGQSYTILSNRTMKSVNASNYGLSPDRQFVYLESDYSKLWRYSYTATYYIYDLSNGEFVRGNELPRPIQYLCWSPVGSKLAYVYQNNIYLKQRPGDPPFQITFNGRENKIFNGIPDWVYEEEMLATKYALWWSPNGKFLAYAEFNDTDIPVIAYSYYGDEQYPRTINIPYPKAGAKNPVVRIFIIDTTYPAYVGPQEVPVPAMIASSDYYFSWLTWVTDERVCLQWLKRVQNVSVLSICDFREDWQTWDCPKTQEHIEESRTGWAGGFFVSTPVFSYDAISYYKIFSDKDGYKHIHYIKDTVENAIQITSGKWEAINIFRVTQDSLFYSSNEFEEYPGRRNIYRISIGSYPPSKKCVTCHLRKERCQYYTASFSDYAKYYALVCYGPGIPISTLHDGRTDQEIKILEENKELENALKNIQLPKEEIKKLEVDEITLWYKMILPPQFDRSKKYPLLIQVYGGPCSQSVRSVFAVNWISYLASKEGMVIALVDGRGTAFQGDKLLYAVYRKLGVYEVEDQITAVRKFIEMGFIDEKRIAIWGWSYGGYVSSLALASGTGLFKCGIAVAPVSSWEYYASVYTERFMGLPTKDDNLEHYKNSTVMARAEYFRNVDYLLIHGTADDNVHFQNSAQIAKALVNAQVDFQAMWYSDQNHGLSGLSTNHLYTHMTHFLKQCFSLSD
The experiment is described as follows: SPR, Fc-tagged FAP captured on immobilised protein A, pH 7.3, 1:1 Langmuir fit. As for the experimental part:
as §1, §2

In experiment [2] the target is T3, Her2-Fc (human, UniProt P04626 23-652).
T3 construct: Coated in ELISA
The experiment is described as follows: ELISA on coated Her2-Fc; KD 24 h against KD 0 h, mouse serum. As for the experimental part:
(§3) High binding plates (Greiner, 781061) were immobilized with 2.5 μg/ml hFAP-Fc or 1.2 μg/ml Her2-Fc over night at 4° C. Dilution series of 3 μM to 0.07 pM of fusion proteins with binding specifically to Her2 were incubated in 100% human serum or 100% mouse serum for 24 h at 37° C. Dilution series of 3 µM to 0.2 pM or 1 μM to 0.01 fM of fusion proteins with binding specifically to hFAP were incubated in 100% human serum or 100% mouse serum for 24 h at 37° C. ELISA-plates were washed three times with PBST (PBS+0.1% Tween) and blocked with 3% BSA/0.5% Tween/PBS up to 2 h at room temperature (rt). After preincubation for 0 h or 24 h in the presence of serum the dilution series were incubated on ELISA-plates for up to 1 h at rt. Wells were washed with PBST and incubated with biotinylated anti-ubiquitin-antibody (1:300) for up to 1 h at rt. The binding was visualized with Streptavidin-HRP (1:5.000).
(§4) The fusion proteins comprise the albumin binding domain (referred to as HED) and the targeting moiety.
In general terms: An ELISA detects its analyte on a solid surface through an enzyme-linked reagent.

Experiment [3] has as its target T3, Her2-Fc. The experiment in a line: ELISA on coated Her2-Fc; 0 h in mouse serum. As for the experimental part: as §3, §4
For experiment [4], the target named is T3, Her2-Fc. The experiment in a line: ELISA on coated Her2-Fc; KD 24 h against KD 0 h, human serum. As for the experimental part: as §3, §4
Experiment [5] deals with T4, Her2 (immobilised on the SPR chip) (human, UniProt P04626 23-652, limits assumed).
T4 construct: construct not described; also called human epidermal growth factor receptor 2
The experiment is described as follows: SPR, Her2 immobilised on the chip, pH 7.3, 1:1 Langmuir fit [continued]. As for the experimental part: as §1, §2
On the technique in general: Surface plasmon resonance follows binding to a sensor surface in real time, without labels.

Experiment [6] concerns the target T5, Her2 expressed on Sk-Br-3 cells (human, UniProt P04626 23-1255).
T5 construct: whole, on cells; also called human epidermal growth factor receptor 2
The experiment is described as follows: flow cytometry, dilution series on Sk-Br-3 cells. As for the experimental part: Her2 expressing Sk-Br-3-cells and HEK293-hFAP overexpressing cells were thawed, washed with medium containing FCS, subsequently washed with FACS blocking buffer (PBS/0.1% Sodium Azide/3% FCS) and 100 μl seeded in 96-well round bottom plates with a density of 1×10⁶ cells/ml. Dilution series from 10 µM to 8.6 fM (CID 217781, CID 217787) and a dilution series of 3 µM to 0.2 μM (CID 218466, CID 218467, 218512, CID 218513, CID 218514, CID 218515, CID 218516) were incubated on Her2-expressing Sk-Br-3-cells and dilution series from 1 μM to 0.07 μM of fusion proteins 218690 and 218702 were incubated on hFAP-overexpressing HEK293-cell line for 45 min at 4° C. After centrifugation the supernatants were removed and cells were washed with FACS blocking buffer and 100 μl/well rabbit anti-Strep-Tag antibody (GenScript; A00626), 1:300 diluted in FACS blocking buffer were added. After removal of the primary antibody goat anti-rabbit IgG Alexa Fluor 488 antibody (Invitrogen; A4008) was applied in a 1:1000 dilution in FACS blocking buffer. Flow cytometry measurement was conducted on the Guava easyCyte 5HT device from Merck-Millipore at excitation wavelength 488 nm and emission wavelength 525/30 nm. The * in table 2 refers to a fusion protein with the albumin binding domain as dimer (homo-dimer) and/or the targeting moiety as dimer.
Background: In flow cytometry, cells or beads pass a laser one at a time.

Experiment [7] has as its target T3, Her2-Fc. The experiment in a line: ELISA on coated Her2-Fc; after 24 h in human serum at 37 C. As for the experimental part:
as §3, §4

For experiment [8], the target named is T3, Her2-Fc. The experiment is described as follows: ELISA on coated Her2-Fc; after 24 h in mouse serum at 37 C. As for the experimental part:
as §3, §4

In experiment [9] the target is T3, Her2-Fc. The experiment in a line: ELISA on coated Her2-Fc; 24 h in human serum at 37 C. As for the experimental part:
as §3, §4

Experiment [10] has as its target T3, Her2-Fc. The experiment in a line: ELISA on coated Her2-Fc; 0 h in human serum. As for the experimental part:
as §3, §4

Experiment [11] has as its target T3, Her2-Fc. The experiment in a line: ELISA on coated Her2-Fc; 24 h in mouse serum at 37 C. As for the experimental part:
as §3, §4

For experiment [12], the target named is T1, human serum albumin. The experiment is described as follows: SPR, HSA immobilised on the chip, pH 7.3, 1:1 Langmuir fit [continued]. As for the experimental part:
as §1, §2

The next experiment deals with T6, mouse serum albumin (mouse, UniProt P07724 25-608).
T6 construct: also called MSA
The experiment in a line: SPR, MSA immobilised. As for the experimental part:
as §1, §2

Experiment [13] addresses T1, human serum albumin. The experiment is described as follows: SPR, HSA immobilised. As for the experimental part: as §1, §2

Where no end group is shown, it is not given here.

T1 sequence (P02768 25-609 limits assumed): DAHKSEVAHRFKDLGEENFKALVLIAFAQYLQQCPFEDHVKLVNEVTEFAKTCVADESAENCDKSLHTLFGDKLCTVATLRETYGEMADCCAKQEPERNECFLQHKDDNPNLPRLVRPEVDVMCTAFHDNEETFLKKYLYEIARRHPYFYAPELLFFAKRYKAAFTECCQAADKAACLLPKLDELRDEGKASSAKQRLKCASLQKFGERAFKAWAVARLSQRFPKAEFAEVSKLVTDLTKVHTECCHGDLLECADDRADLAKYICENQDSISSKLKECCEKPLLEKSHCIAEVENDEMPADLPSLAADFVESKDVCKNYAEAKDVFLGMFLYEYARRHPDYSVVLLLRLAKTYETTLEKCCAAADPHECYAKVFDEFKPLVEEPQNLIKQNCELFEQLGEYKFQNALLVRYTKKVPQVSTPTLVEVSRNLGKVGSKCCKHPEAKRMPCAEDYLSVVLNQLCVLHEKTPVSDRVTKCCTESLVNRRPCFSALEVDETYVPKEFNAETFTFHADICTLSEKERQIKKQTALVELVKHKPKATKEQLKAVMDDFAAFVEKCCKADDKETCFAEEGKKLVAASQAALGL

B1: fusion protein 218708 (designed binder, not shown: small tags and cut ends)
chain (part 1 of 2): not shown
chain (part 2 of 2): LAEAKVLALKELDKYGISNYYKNLINNAKTVEGVKALKEAIVAALP
notes: also called CID 218708
As to B1, the results for the Kd with human serum albumin [1] and in the experiment with hFAP-Fc were 7.3 nM and 4.4 nM, respectively.

B2: fusion protein 218512 (designed binder, not shown: small tags and cut ends)
chain (part 1 of 2): not shown
chain (part 2 of 2): LAEAKVLALKELDKYGISNYYKNLINNAKTVEGVKALKEAIVAA
notes: also called CID 218512
Consider B2, for which the “increase of KD vs target [fold]” value with Her2-Fc [2] is 1.2 fold; with Her2-Fc [4] it was 1.58 fold. Further, the Kd – broadly, the free concentration of one partner at which half of the binding sites on the other are occupied at equilibrium, for simple one-to-one binding – came out at 0.2 nM with Her2-Fc [3]; 2.7 nM in [5]; 1.72 nM in experiment [6]; 0.36 nM with Her2-Fc [9]; 0.23 nM with Her2-Fc [10]; 0.24 nM with Her2-Fc [11]. For the same molecule, in the experiment with human serum albumin [12], the equilibrium dissociation constant (Kd) is 1.8 nM. Further, the entries for the “max binding after 24 h [%]” value in the experiment with Her2-Fc [7] and with Her2-Fc [8] were 100% and 98.6%, respectively.

B3: Fusion proteins with albumin binding domain c45 (SEQ ID NO: 35) (designed binder, not shown: small tags and cut ends)
chain: LAEAKVLALKELDKYGISNGYKNLINNAKTIEGVKALKDEIVAA
modifications: also: part of fusion protein, targeting moiety, linker, tag and order not given here
Consider B3, for which the dissociation constant (Kd) with mouse serum albumin and with human serum albumin [13] was ≥ 100 nM throughout.

B4: fusion protein 218703 (designed binder, not shown: small tags and cut ends)
chain (part 1 of 2): not shown
chain (part 2 of 2): LAEAKVLALKELDKYGISNYYKNLINNAKTIEGVKALKAQIVAA
notes: also called CID 218703
Turning to B4, the dissociation constant Kd with human serum albumin [1] was found to be 5.9 nM; with hFAP-Fc, 5.8 nM.

B5: Fusion proteins with albumin binding domain c49 (SEQ ID NO: 37) (designed binder, not shown: small tags and cut ends)
chain: LAEAKVLALKELDKYGISNDYKNLINNAKTIEGVEALKDAILAA
modifications: also: part of fusion protein, targeting moiety, linker, tag and order not given here
On to B5, for which the Kd with mouse serum albumin and with human serum albumin [13] was ≥ 100 nM each time.

B6: fusion protein 218514 (designed binder, not shown: small tags and cut ends)
chain (part 1 of 2): not shown
chain (part 2 of 2): LAEAKVLALKELDKYGISNYYKNLINNAKTIEGVEALKDAILAA
notes: also called CID 218514
Consider B6, for which the “increase of KD vs target [fold]” value came to 1.19 fold with Her2-Fc [2] and 1.06 fold with Her2-Fc [4]. In addition, the Kd with Her2-Fc [3] came to 0.21 nM; in experiment [5] it was 3.3 nM; in experiment [6], 2.19 nM; with Her2-Fc [9], 0.3 nM; with Her2-Fc [10], 0.29 nM; in the experiment with Her2-Fc [11], 0.25 nM. In addition, binding with human serum albumin [12] was characterised by a dissociation constant (Kd) of 1.8 nM. Besides, the “max binding after 24 h [%]” value with Her2-Fc [7] was 96.4%; with Her2-Fc [8] it was 100%.

B7: fusion protein 218513 (designed binder, not shown: small tags and cut ends)
chain (part 1 of 2): not shown
chain (part 2 of 2): LAEAKVLALKELDKYGISNYYKNLINNAKTVEGVEALKEAILAA
notes: also called CID 218513
Regarding B7, the “increase of KD vs target [fold]” value with Her2-Fc [2] was determined as 1.23 fold; in the experiment with Her2-Fc [4], 1.27 fold. Moreover, the Kd in the experiment with Her2-Fc [3] came to 0.25 nM; in experiment [5], 3.3 nM; in [6] it was 2.48 nM; with Her2-Fc [9], 0.43 nM; with Her2-Fc [10] it was 0.34 nM; with Her2-Fc [11], 0.31 nM. This molecule also returned a Kd with human serum albumin [12] of 1.9 nM. Also, the “max binding after 24 h [%]” value amounted to 100% in the experiment with Her2-Fc [7] and 106% with Her2-Fc [8].

B8: Fusion proteins with albumin binding domain c50 (SEQ ID NO: 38) (designed binder, not shown: small tags and cut ends)
chain: LAEAKVLALKELDKYGISNYGKNLINNAKTIEGVEALKDAILAA
modifications: also: part of fusion protein, targeting moiety, linker, tag and order not given here
In the case of B8, the Kd with mouse serum albumin and with human serum albumin [13] was ≥ 100 nM each time.

B9: Fusion proteins with albumin binding domain c42 (SEQ ID NO: 34) (designed binder, not shown: small tags and cut ends)
chain: LAEAKVLALKELDKYGISNYYKNLINNAKTIESVKALKDEIVAA
modifications: also: part of fusion protein, targeting moiety, linker, tag and order not given here
In the case of B9, the Kd with mouse serum albumin and with human serum albumin [13] was ≥ 100 nM in each case.

B10: fusion protein 218692 (designed binder, not shown: small tags and cut ends)
chain (part 1 of 2): not shown
chain (part 2 of 2): LAEAKVLAIKELDKAGISNYYFNLINNAKTVEGVKDLKAQIVAA
notes: also called CID 218692
For B10, the Kd with human serum albumin [1] came out at 5 nM; in the experiment with hFAP-Fc, 4 nM.

B11: fusion protein 218687 (designed binder, not shown: small tags and cut ends)
chain (part 1 of 2): not shown
chain (part 2 of 2): LAEAKVLALKELDKYGISNYYKNLINNAKTVEGVKALKEAIVAA
notes: also called CID 218687
Turning to B11, the dissociation constant Kd came to 0.9 nM with human serum albumin [1] and 3.4 nM with hFAP-Fc.
